Results from patent US20240287138A1 (Merck Sharp & Dohme, published 2024).
Numbered stars: 1 amine (or outer) side, 2 acyl side, 3 side chain; on linkers, the order of the positions; unused ones are H or OH. Bridge positions count the residues as written; N and C are the ends. Square brackets hold non-standard residues; d marks the D form. Primed or numbered codes have the meaning given here. NEtCNG = 2-(2-Cyanoethylamino)acetic acid ((2-cyanoethyl)glycine), N#CCCN(CC(=O)[*:2])[*:1]; bhcLeu = (1R,3S)-3-aminocyclopentane-1-carboxylic acid, O=C([C@@H]1CC[C@H](N[*:1])C1)[*:2]; Trp(βS-Me,7-OMe) = COc1cccc2c([C@H](C)[C@H](N)C(=O)O)c[nH]c12; Trp(βS-Me) = C[C@@H](c1c[nH]c2ccccc12)[C@H](N)C(=O)O; Trp(7-Cl) = N[C@@H](Cc1c[nH]c2c(Cl)cccc12)C(=O)O; Phe(3-COOH) = N[C@@H](Cc1cccc(C(=O)O)c1)C(=O)O; Phe(4-CONH2) = NC(=O)c1ccc(C[C@H](N)C(=O)O)cc1; Phe(4-COOH) = N[C@@H](Cc1ccc(C(=O)O)cc1)C(=O)O; Trp(7-aza) = N[C@@H](Cc1c[nH]c2ncccc12)C(=O)O; Phe(4-CH2NH2) = NCc1ccc(C[C@H](N)C(=O)O)cc1; 3Pal(6-OMe) = COc1ccc(C[C@H](N)C(=O)O)cn1; Pip(5R-OH) = O=C(O)[C@@H]1CC[C@@H](O)CN1; αMeW = C[C@](N)(Cc1c[nH]c2ccccc12)C(=O)O; Ala(2-furyl) = N[C@@H](Cc1ccco1)C(=O)O; 2Nal = N[C@@H](Cc1ccc2ccccc2c1)C(=O)O; Dap(CONH2) = NC(=O)NC[C@H](N)C(=O)O; Pip(4-aza) = O=C(O)[C@@H]1CNCCN1; 3Pal = N[C@@H](Cc1cccnc1)C(=O)O; 4Pal = N[C@@H](Cc1ccncc1)C(=O)O; NMeE = CN[C@@H](CCC(=O)O)C(=O)O; 2SBrBu = not defined here; 2SBrPr = not defined here; NMeS = CN[C@@H](CO)C(=O)O; Pip = O=C(O)[C@@H]1CCCCN1; αMeS = C[C@](N)(CO)C(=O)O; Nle = CCCC[C@H](N)C(=O)O; Pip2c = not defined here; SBrPh = not defined here; Ahp′ = not defined here; Dab = NCC[C@H](N)C(=O)O; Spip = not defined here; Dap = NC[C@H](N)C(=O)O; Sar = CNCC(=O)O

T1: TNFR1 on THP-1 Lucia NF-κB cells (UniProt P19438 30-455, limits assumed)
T1 sequence (looked up): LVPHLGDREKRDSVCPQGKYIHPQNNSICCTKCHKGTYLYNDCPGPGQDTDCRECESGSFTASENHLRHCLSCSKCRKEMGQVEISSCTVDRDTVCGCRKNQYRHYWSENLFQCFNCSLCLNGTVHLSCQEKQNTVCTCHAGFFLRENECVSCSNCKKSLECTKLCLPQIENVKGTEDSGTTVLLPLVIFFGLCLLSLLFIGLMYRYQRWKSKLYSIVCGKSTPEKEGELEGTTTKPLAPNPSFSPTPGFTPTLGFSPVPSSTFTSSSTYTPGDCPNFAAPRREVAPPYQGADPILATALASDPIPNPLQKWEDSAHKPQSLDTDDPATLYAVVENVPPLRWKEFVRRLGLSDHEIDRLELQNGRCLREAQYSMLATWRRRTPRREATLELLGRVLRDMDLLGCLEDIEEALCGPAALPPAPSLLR


These binders were tested against T1, TNFR1 on THP-1 Lucia NF-κB cells (assay: cell-based or functional assay).

Binder | THP-1 IC50 [nM]
{CH2CO}-[LysN3][4Pal][Dap][Trp(βS-Me)][dP]N[4Pal][Trp(7-Cl)][αMeS][Phe(4-COOH)][Phe(4-CH2NH2)][Sar][αMeW]C-NH2 (thioether N-14) [SEQ ID NO. 245] | 9.4
2SBrBu-[Nle][4Pal][Spip]W[NMeE]N[4Pal][Trp(7-Cl)][αMeS][Phe(4-CONH2)]Y[Sar][Trp(βS-Me,7-OMe)]C-NH2 (thioether N-14; reading uncertain; also: printed as cyclo(2SBrBu-Nle-4Pal-Spip-W-NMeE-N-4Pal-Trp7Cl-aMeS-Phe4CONH2-Y-Sar-SbMeW7OMe-C)-NH2) [SEQ ID NO. 246] | 4.3
cyclo([bhcLeu][LysMe2][4Pal][Pip(5R-OH)]W[NMeE]N[4Pal][Trp(7-Cl)][αMeS][Phe(4-CONH2)]Y[Sar][Trp(βS-Me,7-OMe)]) [SEQ ID NO. 238] | 0.7
SBrPh-[Nle][4Pal]S[Trp(7-aza)][NMeE]N[4Pal][Trp(7-Cl)][αMeS][Phe(4-COOH)]Y[Sar][αMeW]C-NH2 (thioether N-14; reading uncertain; also: printed as cyclo(SBrPh-Nle-4Pal-S-Trp7az-NMeE-N-4Pal-Trp7Cl-aMeS-Phe4COOH-Y-Sar-aMeW-C)-NH2) [SEQ ID NO. 274] | 3.2
{CH2CO}-[Nle][4Pal][Dab][Trp(7-aza)][NMeE]N[4Pal][Trp(7-Cl)][αMeS][Phe(4-COOH)]Y[Sar][αMeW]C-NH2 (thioether N-14; SMILES CCCC[C@@H]1NC(=O)CSC[C@@H](C(N)=O)NC(=O)[C@](C)(Cc2c[nH]c3ccccc23)NC(=O)CN(C)C(=O)[C@H](Cc2ccc(O)cc2)NC(=O)[C@H](Cc2ccc(C(=O)O)cc2)NC(=O)[C@](C)(CO)NC(=O)[C@H](Cc2c[nH]c3c(Cl)cccc23)NC(=O)[C@H](Cc2ccncc2)NC(=O)[C@H](CC(N)=O)NC(=O)[C@H](CCC(=O)O)N(C)C(=O)[C@H](Cc2c[nH]c3ncccc23)NC(=O)[C@H](CCN)NC(=O)[C@H](Cc2ccncc2)NC1=O) [SEQ ID NO. 277] | 3
2SBrPr-[Nle][Phe(4-CH2NH2)]S[Trp(7-aza)][NMeE]N[4Pal][Trp(7-Cl)][αMeS][Phe(4-CONH2)]Y[Sar][Trp(βS-Me,7-OMe)]C-NH2 (thioether N-14; reading uncertain; also: printed as cyclo(2SBrPr-Nle-Phe4CH2NH2-S-Trp7az-NMeE-N-4Pal-Trp7Cl-aMeS-Phe4CONH2-Y-Sar-SbMeW7OMe-C)-NH2) [SEQ ID NO. 250] | 2.4
{CH2CO}-[Nle][4Pal][Pip][Trp(7-aza)][NEtCNG]N[4Pal][Trp(7-Cl)][αMeS][Phe(4-COOH)]Y[Sar][Trp(βS-Me,7-OMe)]C-NH2 (thioether N-14; SMILES CCCC[C@@H]1NC(=O)CSC[C@@H](C(N)=O)NC(=O)[C@H]([C@@H](C)c2c[nH]c3c(OC)cccc23)NC(=O)CN(C)C(=O)[C@H](Cc2ccc(O)cc2)NC(=O)[C@H](Cc2ccc(C(=O)O)cc2)NC(=O)[C@](C)(CO)NC(=O)[C@H](Cc2c[nH]c3c(Cl)cccc23)NC(=O)[C@H](Cc2ccncc2)NC(=O)[C@H](CC(N)=O)NC(=O)CN(CCC#N)C(=O)[C@H](Cc2c[nH]c3ncccc23)NC(=O)[C@@H]2CCCCN2C(=O)[C@H](Cc2ccncc2)NC1=O) [SEQ ID NO. 228] | 4

The next lines start with the values.

THP-1 IC50 [nM] | Binder
0.9 | cyclo([bhcLeu][Nle][4Pal][Pip(4-aza)]W[NMeE][Dap(CONH2)][4Pal][Trp(7-Cl)][αMeS][Phe(4-COOH)]Y[Sar][Trp(βS-Me,7-OMe)]) (SMILES CCCC[C@@H]1NC(=O)[C@@H]2CC[C@@H](C2)NC(=O)[C@H]([C@@H](C)c2c[nH]c3c(OC)cccc23)NC(=O)CN(C)C(=O)[C@H](Cc2ccc(O)cc2)NC(=O)[C@H](Cc2ccc(C(=O)O)cc2)NC(=O)[C@](C)(CO)NC(=O)[C@H](Cc2c[nH]c3c(Cl)cccc23)NC(=O)[C@H](Cc2ccncc2)NC(=O)[C@H](CNC(N)=O)NC(=O)[C@H](CCC(=O)O)N(C)C(=O)[C@H](Cc2c[nH]c3ccccc23)NC(=O)[C@@H]2CNCCN2C(=O)[C@H](Cc2ccncc2)NC1=O) [SEQ ID NO. 225]
4.4 | {CH2CO}-[Nle][4Pal][Pip(4-aza)]W[NMeE]N[4Pal][Trp(7-Cl)][αMeS][Phe(3-COOH)]Y[Sar][Trp(βS-Me,7-OMe)]C-NH2 (thioether N-14; SMILES CCCC[C@@H]1NC(=O)CSC[C@@H](C(N)=O)NC(=O)[C@H]([C@@H](C)c2c[nH]c3c(OC)cccc23)NC(=O)CN(C)C(=O)[C@H](Cc2ccc(O)cc2)NC(=O)[C@H](Cc2cccc(C(=O)O)c2)NC(=O)[C@](C)(CO)NC(=O)[C@H](Cc2c[nH]c3c(Cl)cccc23)NC(=O)[C@H](Cc2ccncc2)NC(=O)[C@H](CC(N)=O)NC(=O)[C@H](CCC(=O)O)N(C)C(=O)[C@H](Cc2c[nH]c3ccccc23)NC(=O)[C@@H]2CNCCN2C(=O)[C@H](Cc2ccncc2)NC1=O) [SEQ ID NO. 249]
4.1 | XXXXENXXXXYGXC (not fully specified; cyclo(2SBrPr-Nle-4Pal-Bav-Trp7az-NMeE-N-4Pal-Trp7Cl-aMeS-Phe4CONH2-Y-Sar-SbMeW7OMe-C)-NH2) [SEQ ID NO. 273]
10 | {CH2CO}-[Ahp′]Y[AlaPiperaz][Trp(βS-Me)][dP]N[4Pal][Trp(7-Cl)][αMeS][Phe(4-COOH)][3Pal][Sar][αMeW]C-NH2 (thioether N-14; reading uncertain; also: printed as cyclo(ClAc-Ahp-Y-AlaPiperaz-SbMeW-dP-N-4Pal-Trp7Cl-aMeS-Phe4COOH-3Pal-Sar-aMeW-C)-NH2) [SEQ ID NO. 226]
6.5 | {CH2CO}-[Nle][4Pal][Pip(4-aza)][Trp(7-aza)][NMeE]N[4Pal][Trp(7-Cl)][αMeS][Phe(4-COOH)]Y[Sar][Trp(βS-Me,7-OMe)]CGEE-NH2 (thioether N-14; SMILES CCCC[C@@H]1NC(=O)CSC[C@@H](C(=O)NCC(=O)N[C@@H](CCC(=O)O)C(=O)N[C@@H](CCC(=O)O)C(N)=O)NC(=O)[C@H]([C@@H](C)c2c[nH]c3c(OC)cccc23)NC(=O)CN(C)C(=O)[C@H](Cc2ccc(O)cc2)NC(=O)[C@H](Cc2ccc(C(=O)O)cc2)NC(=O)[C@](C)(CO)NC(=O)[C@H](Cc2c[nH]c3c(Cl)cccc23)NC(=O)[C@H](Cc2ccncc2)NC(=O)[C@H](CC(N)=O)NC(=O)[C@H](CCC(=O)O)N(C)C(=O)[C@H](Cc2c[nH]c3ncccc23)NC(=O)[C@@H]2CNCCN2C(=O)[C@H](Cc2ccncc2)NC1=O) [SEQ ID NO. 255]
4.2 | {CH2CO}-[Nle][4Pal][Pip(4-aza)]W[dP]N[Ala(2-furyl)][Trp(7-Cl)][αMeS][Phe(4-COOH)]Y[Sar][Trp(βS-Me,7-OMe)]C-NH2 (thioether N-14; SMILES CCCC[C@@H]1NC(=O)CSC[C@@H](C(N)=O)NC(=O)[C@H]([C@@H](C)c2c[nH]c3c(OC)cccc23)NC(=O)CN(C)C(=O)[C@H](Cc2ccc(O)cc2)NC(=O)[C@H](Cc2ccc(C(=O)O)cc2)NC(=O)[C@](C)(CO)NC(=O)[C@H](Cc2c[nH]c3c(Cl)cccc23)NC(=O)[C@H](Cc2ccco2)NC(=O)[C@H](CC(N)=O)NC(=O)[C@H]2CCCN2C(=O)[C@H](Cc2c[nH]c3ccccc23)NC(=O)[C@@H]2CNCCN2C(=O)[C@H](Cc2ccncc2)NC1=O) [SEQ ID NO. 236]
1.4 | cyclo([bhcLeu][Nle][3Pal(6-OMe)][Pip(4-aza)]W[NMeE]N[4Pal][Trp(7-Cl)][αMeS][Phe(4-COOH)]Y[Sar][Trp(βS-Me,7-OMe)]) (SMILES CCCC[C@@H]1NC(=O)[C@@H]2CC[C@@H](C2)NC(=O)[C@H]([C@@H](C)c2c[nH]c3c(OC)cccc23)NC(=O)CN(C)C(=O)[C@H](Cc2ccc(O)cc2)NC(=O)[C@H](Cc2ccc(C(=O)O)cc2)NC(=O)[C@](C)(CO)NC(=O)[C@H](Cc2c[nH]c3c(Cl)cccc23)NC(=O)[C@H](Cc2ccncc2)NC(=O)[C@H](CC(N)=O)NC(=O)[C@H](CCC(=O)O)N(C)C(=O)[C@H](Cc2c[nH]c3ccccc23)NC(=O)[C@@H]2CNCCN2C(=O)[C@H](Cc2ccc(OC)nc2)NC1=O) [SEQ ID NO. 241]
8.1 | {CH2CO}-[Nle]H[Pip2c][Trp(7-aza)][NMeE]N[4Pal][Trp(7-Cl)][αMeS][Phe(4-COOH)]Y[Sar][Trp(βS-Me,7-OMe)]C-NH2 (thioether N-14; reading uncertain; also: printed as cyclo(ClAc-Nle-H-Pip2c-Trp7az-NMeE-N-4Pal-Trp7Cl-aMeS-Phe4COOH-Y-Sar-SbMeW7OMe-C)-NH2) [SEQ ID NO. 264]
20.8 | {CH2CO}-[Ahp′][4Pal]S[Trp(βS-Me)][dP]N[Phe(4-COOH)][2Nal][αMeS][Phe(4-COOH)]H[Sar][αMeW]C-NH2 (thioether N-14; reading uncertain; also: printed as cyclo(ClAc-Ahp-4Pal-S-SbMeW-dP-N-Phe4COOH-2Nal-aMeS-Phe4COOH-H-Sar-aMeW-C)-NH2) [SEQ ID NO. 237]
2.2 | {CH2CO}-[Nle][4Pal][NMeS]W[NMeE]N[4Pal][Trp(7-Cl)][αMeS][Phe(4-COOH)][Phe3CONH2][Sar][Trp(βS-Me,7-OMe)]C-NH2 (thioether N-14) [SEQ ID NO. 270]
